This test concerns the target Drosophila olf186-F-RB (Drosophila) (UniProt Q9U6B8). As to the kind of experiment: cell-based or functional assay.
UniProt Q9U6B8, sequence (Q9U6B8 whole entry): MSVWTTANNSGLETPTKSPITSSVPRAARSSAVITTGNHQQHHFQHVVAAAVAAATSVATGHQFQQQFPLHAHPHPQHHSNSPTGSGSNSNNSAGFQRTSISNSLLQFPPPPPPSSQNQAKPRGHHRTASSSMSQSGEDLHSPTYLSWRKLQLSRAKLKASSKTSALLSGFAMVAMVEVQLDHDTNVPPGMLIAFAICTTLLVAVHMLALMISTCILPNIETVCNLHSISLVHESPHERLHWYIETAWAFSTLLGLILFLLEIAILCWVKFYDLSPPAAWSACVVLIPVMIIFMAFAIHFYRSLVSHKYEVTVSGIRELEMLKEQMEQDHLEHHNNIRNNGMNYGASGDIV

“Drosophila Stim (from UniProt P83094 24-570)” returned a CRAC current density (whole-cell patch clamp, cotransfected S2 cells) of 8 fold.

Source of the values: US20140187616A1.
